Data on 2 molecules can be found in paper PMC12238573 (Nature Communications, 2025).

Data set [1] has as its target Branchiostoma lanceolatum Class II PRPS (Branchiostoma lanceolatum). As to the kind of experiment: SEC; lysate of HEK293T cells with exogenously expressed Class II PRPS; fractions analysed by Western blot. On the technique in general: SEC sorts molecules by how far they enter the pores of the column.
Data set [2] concerns the molecule itself. As to the kind of experiment: SEC; native whole-cell lysates of NIH3T3 AP1 KO and AP1/AP2 KO cells on Yarra SEC-2000 (1 kDa to 300 kDa); fractions analysed by Western blot.

As for “Branchiostoma lanceolatum Class II PRPS (enzyme)”, the stoichiometry N in data set [1] is 2 to 6.

B1: PRPS2 (endogenous, mouse) (enzyme, UniProt Q9CS42 1-318, looked up)
chain: MPNIVLFSGSSHQDLSQRVADRLGLELGKVVTKKFSNQETSVEIGESVRGEDVYIIQSGCGEINDNLMELLIMINACKIASSSRVTAVIPCFPYARQDKKDKSRAPISAKLVANMLSVAGADHIITMDLHASQIQGFFDIPVDNLYAEPAVLQWIRENITEWRNCIIVSPDAGGAKRVTSIADRLNVEFALIHKERKKANEVDRMVLVGDVKDRVAILVDDMADTCGTICHAADKLLSAGATKVYAILTHGIFSGPAISRINSAAFEAVVVTNTIPQEDKMKHCSKIQVIDISMILAEAIRRTHNGESVSYLFSHVPL
notes: PRPS2, endogenous in mouse cells and tissues; also called P2; phosphoribosyl pyrophosphate synthetase 2; source: endogenous, NIH3T3 lysate (parental and CRISPR knockout lines); endogenous, C57BL/6 mouse liver, kidney and lung lysates
As for B1, the “stoichiometry N” value in data set [2] is 2.

A word on the stoichiometry N: it is the number of molecules, sites or subunits per partner or assembly.
